# Measured values from the RNAGym collection of RNA variant scans (doi:10.1073/pnas.2313332121).
# Variants at the floor of the assay were thinned out.
# B1: TPR 5TU (parent)
# chain: GGAUCUUCUCGAUCUAACAAAAAAGACAAAUCUGCCACAAAGCUUGAGAGCAUCUUCGGAUGCAGAGGCGGCAGCCUUCGGUGGCGCGAUAGCGCCAACGUUCUCAACUAUGACACGCAAAACGCGUGCUCCGUUGAAUGGAGUUUAUCAUG
# Variants of: B1
# Assay: polymerase ribozyme fitness, log enrichment relative to wild type (log ratio); higher = more active; in vitro selection for triplet polymerase activity
# In short: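 Fitness is a logarithmic measure of how a genotype enriched relative to the wild type, with replicate averages weighted by inverse variance. The logarithm uses base 2, and enrichment came from Illumina sequencing of input and output libraries. Those libraries were PCR-built, transcribed mutants of each subunit of a heterodimeric triplet polymerase ribozyme, passed through one triplicate in vitro selection round that included frozen incubation at −7 °C, gel excision of extended constructs and streptavidin-bead capture. Genotypes were kept only if they had ≥10 input reads and ≥1 read per output.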
row,Variant,polymerase ribozyme fitness (log ratio)
1,GGAUCUUCUCGAUCUAACAAAAAAGACAAAUCUGCCACAAAGCUUGAGAGCAUCUUCGGAUUCAGAGGCGGCAGCUUUCGGUGGGGCGAUAGCGCCAACGUUCUCAACUAUGACACGCAAAACGCGUGCUCCGUUGAAUGGAGUUUAUCAUG [G62U C76U C85G],-2.1
2,GGAUCUUCUCGAUCUAACAAAAAAGACAAAUCUGCCACAAAGCUUGAGAGCAUCUUCGGAUUCAGAGCCGGCAGCCUUCGGUGGCGCGAUAGCGCCAGCGUUCUCAACUAUGACACGCAAAACCCGUGCUCCGUUGAAUGAAGUUUAUCAUG [G62U G68C A98G G124C G141A],≤ -4.2
3,GGAUCUUCUCGAUCUAACAAAAAAGACAAAUCUGCCACAAAGCUUGAGAGCAUCUUCGGAUGAAGAGGCGGCAGCCUUCGGUGGGGCGAUAGCGCCAACGUUCUCAACUAUGACACGCAAAACGCGUGCUCCGAUGAAUGGAGUUUAUCAUG [C63A C85G U134A],-4.18
4,GGAUCUUCUCGAUCUAACAAAAAAGACAAAUCUGCCACAAAGCUUGAGAGCAUCUUCGGAUCCAGAGGCAGCAGCCUUGGGUGGCCCGAUAGCGCCAACGUUCUCAACUAUGACACGCAAAACGCGUGCUCCGUUGAAUGGCGUUUAUUAUG [G62C G70A C79G G86C A142C C149U],≤ -4.2
5,GGAUCUUCUCGAUCUAACAAAAAAGACAAAUCUGCCACAAAGCUUGAGAGCAUCUUCGGAUUCAAAGGCGGCAGCCUUCGGUGGCGCGAUAGCGCCAACGUUAUCAACUAUGACACGCAAAACGCGUGCUCCGUUGAAUGGAGUUUAUCAUG [G62U G65A C103A],-3.94
6,GGAUCUUCUCGAUCUAACAAAAAAGACAAAUCUGCCACAAAGCUUGAGAGCAUCUUCGGAUCCAGAGACGGCAGCCUUCGGGGGCGCGAUAGAGCCGACGUUCUCAACUAUGACACGAAAAACGCGUGCUCCGUUGAAUGGAUUUUAUCAUG [G62C G68A U82G C93A A97G C118A G143U],≤ -4.2
7,GGAUCUUCUCGAUCUAACAAAAAAGACAAAUCUGCCACAAAGCUUGAGAGCAUCUUCGGAUCUAGAGGCGGCAGCCUUCGGUGGCGCGAUAGCGCCAACGUUCUCAACUAUGACACGCAAAACGCGUGCUCCGUUGAAUGGAGUUUAUCAUG [G62C C63U],-2.25
8,GGAUCUUCUCGAUCUAACAAAAAAGACAAAUCUGCCACAAAGCUUGAGAGCAUCUUCGGAUUCAGAGGCGGCCGCCUUCGGUGGCGCGAUAGCCCCAACGUUCUCAACUAUGACACGCAAAACGCGUGCUCCGUUGAAUGGAGUUUAUCAUG [G62U A73C G94C],≤ -4.2
9,GGAUCUUCUCGAUCUAACAAAAAAGACAAAUCUGCCACAAAGCUUGAGAGCAUCUUCGGAUUCAGAGGCGGCAGCCUUCGGUGGUGCGAUAGCGCUAACGUUCUCAACUAUGACACGUAAAACGCGUGCUCCGUUGAAUGGAGUUUAUCAUG [G62U C85U C96U C118U],-1.28
10,GGAUCUUCUCGAUCUAACAAAAAAGACAAAUCUGCCACAAAGCUUGAGAGCAUCUUCGGAUCCAGACGCGGCAGCCUUCGGUGGCGCGAUAGCGCCAACGUUCUCAACUAUGACACGCAAAACGCGUGCUCCGCUGAAUGGAGUUUGUCAUG [G62C G67C U134C A147G],≤ -4.2
11,GGAUCUUCUCGAUCUAACAAAAAAGACAAAUCUGCCACAAAGCUUGAGAGCAUCUUCGGAUCCAGAGGCGGCAACCUUCGGUAGCGCGAUAGCGCCAACGUUCUCAACUAUGACACGCAAAACGAGUGCUCCGUUGAAGAGAGUUUAUCAUG [G62C G74A G83A C125A U139G G140A],≤ -4.2
12,GGAUCUUCUCGAUCUAACAAAAAAGACAAAUCUGCCACAAAGCUUGAGAGCAUCUUCGGAUUCAGAGGCGGCAGCCUUCGGUGGCGCGAUAGCGCCAACGUUUUCAACUAUGACACGCAAAACGCGUGCUCCGUUGAAUGGAGUUUAUCAUG [G62U C103U],-0.754
13,GGAUCUUCUCGAUCUAACAAAAAAGACAAAUCUGCCACAAAGCUUGAGAGCAUCUUCGGAUCCAGAGGCGGCAGCCUUCGGUGGCGCGAUAGCGCCGACGUUCUCAACUAUGACACGCAAAACGCGUGCUCCGUUGAAUGGAGUUUAUCAUG [G62C A97G],-0.203
14,GGAUCUUCUCGAUCUAACAAAAAAGACAAAUCUGCCACAAAGCUUGAGAGCAUCUUCGGAUCCGGAGGCGGCAGCCUUCGGUCGCGCGAUAGCGCCAACGUGCUCAACUAUGAUACGCAAAACGCGGGCUCCGUUGAAUGGAGUUUAUCAUG [G62C A64G G83C U102G C114U U127G],≤ -4.2
15,GGAUCUUCUCGAUCUAACAAAAAAGACAAAUCUGCCACAAAGCUUGAGAGCAUCUUCGGAUUCAGAGGCGGCAGCCUUCGGUGGCGCGAUACCGCAAUCGUUCUCAACUAUGACACGCAAAACGCGUGCUCCGUUGAAUGGAGUUUAUCAUG [G62U G92C C96A A98U],-2.71
16,GGAUCUUCUCGAUCUAACAAAAAAGACAAAUCUGCCACAAAGCUUGAGAGCAUCUUCGGAUACAGAGGCGGCAGCCUUCGGUGGCGCGAUAACGCCAACGUUCUCAACUAUGACACGCAAAACGCGUGCUCCGUUGAAUGGAGUUUAUCAUG [G62A G92A],-3.43
17,GGAUCUUCUCGAUCUAACAAAAAAGACAAAUCUGCCACAAAGCUUGAGAGCAUCUUCGGAUCCAGAGGCGGCAGCCUUCGGUGGGGCGAUAGCGCCAACGUUCUCAACUAUGACACGCAAAACGCGUGCUCCGUUGAAUGGAGUUUAUCAUG [G62C C85G],-3.23
18,GGAUCUUCUCGAUCUAACAAAAAAGACAAAUCUGCCACAAAGCUUGAGAGCAUCUUCGGAUCCAGAGGCGGCAGCCUUCGGUGGCGCGAUAGUGCCAACGUUCUCAACUAUGACACGCAAAACGCGUGCUCCGUUGAAUGGAGUUUAUCAUG [G62C C93U],-3.83
19,GGAUCUUCUCGAUCUAACAAAAAAGACAAAUCUGCCACAAAGCUUGAGAGCAUCUUCGGAUACAGAGGCGGCAGCCUUCGGUGGCGCGAUAACGCCAACGUUCUCAACUAUGACAUGCAAAACGCGUGCUCCGUUGAAUGGAGUUUAUCAUG [G62A G92A C116U],-2.52
